From PMC7327485 (The EMBO Journal, 2020)

Biological target: the molecule itself
Assay: absorbance at 350 nm

B1: farnesylated hGBP1 R584‐586A (hGBP1F ^R584‐586A) (natural protein)
chain: MASEIHMTGPMCLIENTNGRLMANPEALKILSAITQPMVVVAIVGLYRTGKSYLMNKLAGKKKGFSLGSTVQSHTKGIWMWCVPHPKKPGHILVLLDTEGLGDVEKGDNQNDSWIFALAVLLSSTFVYNSIGTINQQAMDQLYYVTELTHRIRSKSSPDENENEVEDSADFVSFFPDFVWTLRDFSLDLEADGQPLTPDEYLTYSLKLKKGTSQKDETFNLPRLCIRKFFPKKKCFVFDRPVHRRKLAQLEKLQDEELDPEFVQQVADFCSYIFSNSKTKTLSGGIQVNGPRLESLVLTYVNAISSGDLPCMENAVLALAQIENSAAVQKAIAHYEQQMGQKVQLPTETLQELLDLHRDSEREAIEVFIRSSFKDVDHLFQKELAAQLEKKRDDFCKQNQEASSDRCSALLQVIFSPLEEEVKAGIYSKPGGYRLFVQKLQDLKKKYYEEPRKGIQAEEILQTYLKSKESMTDAILQTDQTLTEKEKEIEVERVKAESAQASAKMLQEMQRKNEQMMEQKERSYQEHLKQLTEKMENDRVQLLKEQERTLALKLQEQEQLLKEGFQKESRIMKNEIQDLQTKMAAAKACTIS
modifications: C-terminal farnesyl moiety (added in vitro with farnesyltransferase and farnesyl pyrophosphate)
B1: binds.
